The values that follow come from patent US20080166364A1 (COVX TECHNOLOGY IRELAND, published 2008).

No end group written: not given here.

Test [1] has as its target T1, human angiopoietin-2 protein (human, UniProt O15123 19-496).
T1 construct: bought; also called Ang-2; Ang2
T1 sequence (looked up): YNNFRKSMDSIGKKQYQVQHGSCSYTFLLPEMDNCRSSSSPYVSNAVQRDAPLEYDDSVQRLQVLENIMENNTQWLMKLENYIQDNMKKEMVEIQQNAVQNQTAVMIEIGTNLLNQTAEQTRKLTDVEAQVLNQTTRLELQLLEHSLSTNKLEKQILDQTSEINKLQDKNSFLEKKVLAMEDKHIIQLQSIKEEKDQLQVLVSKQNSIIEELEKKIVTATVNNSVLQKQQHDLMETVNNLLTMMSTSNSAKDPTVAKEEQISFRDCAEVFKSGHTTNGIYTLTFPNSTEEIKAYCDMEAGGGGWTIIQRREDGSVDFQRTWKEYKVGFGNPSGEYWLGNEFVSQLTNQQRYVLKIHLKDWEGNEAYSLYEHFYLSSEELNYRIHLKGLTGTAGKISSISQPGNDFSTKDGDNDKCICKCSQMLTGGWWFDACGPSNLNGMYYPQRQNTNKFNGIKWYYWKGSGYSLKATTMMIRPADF
The experiment in a line: reverse competitive ELISA, coated Tie-2-Fc, 0.83 nM Ang-2; peptide printed without linker, column headed P. Here is the method:
For reverse competition ELISA, human Tie-2-Fc, angiopoietin-2 protein, biotinylated anti-human Ang-2 antibody, and streptavidin HRP (R&D Systems) and TMB substrate from Pierce were used.
High-binding half-well plates were coated with Tie-2-Fc (50 ng/well) in 50 μl PBS and incubated at 4° C. overnight. Plates were washed three times with washing buffer (0.1% Tween 20, PBS, pH 7.4) and blocked with Superblock, 150 μl/well at RT for 1 hour. Plates were washed three times. Following washing, 50 μl of an Ang-2 binding peptide compound (50 nM, 5× serial dilution) in the presence of 50 ng/ml (0.83 nM) Ang-2 in Superblock were added and incubated at RT for 1 hour. Plates were washed 3 times, 50 μl of 1 μg/well biotinylated anti-Ang-2 detection antibody in Superblock was added and incubated at RT for 2 hours. Plates were washed 3 times, and 50 μl of streptavidin HRP (1:200 dilution in Superblock) was added at RT for 20 minutes. Plates were washed 3 times, and 50 μl (25 μl TMB+25 μl H₂O₂) substrate solution was added and incubated for 20-30 minutes. Color development was stopped with 25 μl of 2 M H₂SO₄. OD450 nm with a correction wavelength of 540 nm was measured.
(In general: In an ELISA, binding on a coated surface is turned into a signal by an enzyme label.)

For test [2], the target named is T1, human angiopoietin-2 protein. Nature of the test: competitive ELISA, coated Ang-2, 0.25 nM hTie-2-Fc; peptide alone. How it is done: For competitive ELISA, human angiopoietin-2 protein and Tie-2-Fc (R&D Systems) were reconstituted without carrier protein. Mouse anti-human Tie-2 (Pharmingen) was used as the primary antibody and goat anti-mouse-IgG1-HRP (Pierce) was used as the secondary antibody. TMB substrate from Pierce was used.
High-binding half-well plates were coated with Ang-2 (100 ng/well) in 50 μl PBS and incubated at 4° C. overnight. Plates were washed three times with washing buffer (0.1% Tween 20, PBS, pH 7.4) and blocked with Superblock (Scytek), 100 μl/well at room temperature (“RT”) for 1 hour. After removing the blocking solution, 50 μl of an Ang-2 binding peptide compound (1 uM and 5× serial dilution) in the presence of 0.25 nM hTie-2-Fc using Superblock as diluent was added and incubated at RT for 2 hours. Plates were washed 3 times with washing buffer. Then, 50 ul of 0.1 ug/ml mouse anti-human Tie-2 diluted in Superblock added and incubated at RT for 1 hour. Following incubation, 50 ul of 1:5,000 dilution of goat anti-mouse IgG-HRP in Superblock was then added and incubated at RT for one hour. After washing 3 times, 50 μl (25 μl TMB+25 μl H₂O₂) was added, and incubated for 3-5 minutes. Color development was monitored and stopped with 25 μl of 2 M H₂SO₄. OD450 nm with a correction wavelength of 540 nm was measured.

B1: Compound 22: Ang-2 binding peptide alone (peptide)
peptide: QXYQPLDELDKTLYDQFMLQQG
modifications: not fully specified; N-term acyl cap; C-term NH2 cap; AcK at 2
notes: not conjugated to linker or antibody
For orientation: IC50 means the midpoint of a concentration-inhibition curve. Low values mean inhibition by little substance, high ones a need for much substance. Molecule B1 registered an IC50 in test [1] of 14.4 nM.

B2: Compound 21: Ang-2 binding peptide alone (peptide)
peptide: QKYQPLDELDKTLYDQFMLQQG-NH2
modifications: not fully specified (N-terminus); also: N-term acyl cap, acyl not given here
notes: as for B1
In the case of B2, the IC50 in test [1] was 36.4 nM; in test [2] it was 25.8 nM.

B3: Compound 23: Ang-2 binding peptide alone (peptide)
peptide: QNYQPLDELDKTLYDQFMLQQG-NH2
modifications: not fully specified (N-terminus); also: N-term acyl cap, acyl not given here
notes: as for B1
In test [2], B3 came in with an IC50 of 27.8 nM.
